For 1 substance, KD results are on record in publication PMC6058786.

The target in this assay is Pin1 WW-domain (UniProt Q13526). In words: isothermal titration calorimetry. The settings on record: reference: unphosphorylated TFCD peptide; sites S258,S253. (In general: Isothermal titration calorimetry measures the heat released or taken up as one component is titrated into another.)

Regarding “Tissue Factor (TF) cytoplasmic domain (TFCD) (from UniProt P13726) double phosphorylated TFCD peptide”, the KD entry is on record as “stronger; reference 1.53 mM”.
